{
  "source": "paper PMC7263513",
  "about": "(bioRxiv, 2020)",
  "binders": {"B1": {"name": "C119 (antibody, V domains shown)", "VH": "QVQLVQSGAEVKKPGASVKVSCKASGYTFTSYYMHWVRQAPGQGLEWMGIINPSGGSTSYAQKLQGRVTMTRDTSTSTVYMELSSLRSEDTAVYYCARANHETTMDTYYYYYYMDVWGKGTTVTVSS", "VL": "QSALTQPASVSGSPGQSITISCTGTSSDVGGYKYVSWYQRHPGKAPKLMIYDVSNRPSGVSNRFSGSKSGNTASLTISGLQAEDEADYYCSSYTSSSTSVVFGGGTQLTVL"}, "B2": {"name": "C115 (antibody, V domains shown)", "VH": "QVQLVESGGGLIKPGRSLRLSCTASGFTFGDYAMTWFRQAPGKGLEWVGFIRSKAYGGTTGYAASVKYRFTISRDDSKSIAYLQMDSLKTEDTAVYYCTRWDGWSQHDYWGQGTLVTVSS", "VL": "DIVMTQSPLSLSVTPGEPASISCRSSQSLLHSNGNNYFDWYLQKPGQSPQLLIYLGSNRASGVPDRFSGSGSGTDFTLKISRVEAEDVGVYYCMQVLQIPYTFGQGTKLEIK"}, "B3": {"name": "C114 (antibody, V domains shown)", "VH": "QVQLVESGGGLIQPGGSLKLSCVVSGFTVSKNYISWVRQAPGKGLEWVSVIFAGGSTFYADSVKGRFAISRDNSNNTLFLQMNSLRVEDTAIYYCARGDGELFFDQWGQGTLVTVSS", "VL": "QSVLTQPPSVSGAPGQRVTISCTGTSSNIGAGYDVHWYQQLPGRAPKVLISGNNIRPSEVPDRFSGSRSGTSASLAITSLQPEDEAQYYCQSYDSSLYAVFGGGTKLTVL"}, "B4": {"name": "C124 (antibody, V domains shown)", "VH": "EVQLVESGGGLVQPGGSLRLSCAASGFTFSGYSMNWVRQAPGKGPEWVSYISRSSSTIYYADSVKGRFTISRDNAKNSLYLQMNSLRDEDTAVYYCAREGARVGATYDTYYFDYWGQGTLVTVSS", "VL": "EIVLTQSPATLSLSPGERATLSCRASQSFSSYLAWYQQKPGQAPRLLIYDASNRATGIPARFSGSGSGTDFTLTISSLEPEDFAVYYCQQRNNWPPEWTFGQGTKVEIK"}, "B5": {"name": "C133 (antibody, V domains shown)", "VH": "QVQLVESGGGVVQPGRSLRLSCAASGFTFSSYAMHWVRQAPGKGLEWVAVILYDGSNKYYADSVKGRFTISRDNSKNTLYLQMNSLRAEDTAVYYCARDSDVDTSMVTWFDYWGQGTLVTVSS", "VL": "not shown"}, "B6": {"name": "C121 (antibody, V domains shown)", "VH": "not shown", "VL": "QSALTQPASVSGSPGQSITISCTGTSSDVGSYNLVSWYQQHPGKAPKLMIYEGSKRPSGVSNRFSGSKSGNTASLTISGLQAEDEADYYCCSYAGSSTLVFGGGTKLTVL"}, "B7": {"name": "C132 (antibody, V domains shown)", "VH": "QVQLQESGPGLVKPSGTLSLTCAVSGGSISSNNWWSCVRQPPGKGLEWIGEIYHSGSTNYNPSLKSRVTISVDKSKNQFSLKLSSVTAADTAVYYCARGGDTAMGPEYFDYWGQGTLVTVSS", "VL": "B6 VL with S31G, L34Y, E52D, G53V, K55N, C91S, A94T, G95S, V100L"}, "B8": {"name": "C126 (antibody, V domains shown)", "VH": "QVQLQESGPGLVKPSETLSLSCAVSGGSIGSYFWSWIRQPPGKGLEWIGYLHYSGSTNYNPSLKSRVTISVDTSKNQFSLKLSSVTAADTAVYYCARLQWLRGAFDIWGQGTMVTVSS", "VL": "NFMLTQPHSVSESPGKTVTISCTGSSGSIASNYVQWYQQRPGSAPTTVINEDNQRPSGVPDRFSGSIDSSSNSASLTISGLKTEDEADYYCQSYDSSNLVFGGGTKLTVL"}, "B9": {"name": "C138 (antibody, V domains shown)", "VH": "EVQLVESGGGLVQPGGSLRLSCAASGFTFSTYWMSWVRQPPGKGLEWVANIKQDGSEKYYVDSVKGRFTISRDNAKNSLYLQMNSLRADDTAVYYCAGGTWLRSSFDYWGQGTLVTVSS", "VL": "B8 VL with N50Y, L99W"}, "B10": {"name": "C141 (antibody, V domains shown)", "VH": "not shown", "VL": "B8 VL with N50Y, L99W"}, "B11": {"name": "C128 (antibody, V domains shown)", "VH": "EVQLLESGGGLVQPGGSLRLSCAASGFTFSTYAMSWVRQAPGKGLEWVSTITGSGRDTYYADSVKGRFTISRDNSKNTLFLQLNSLRAEDAAVYSCANHPLASGDDYYHYYMDVWGKGTTVTVSS", "VL": "EIVLTQSPGTLSLSPGERATLSCRASQSVNSRQLAWYQQKPGQAPRLLIYGASSRATGIPERFSGSGSGTDFTLTISRLESEDFAVYHCQQYGSSRALTFGGGTKVEIK"}, "B12": {"name": "C120 (antibody, V domains shown)", "VH": "EVQLVESGGGLIQPGGSLRLSCAASGFTVSSNYMTWVRQAPGKGLEWVSLIYPGGSTYYADSVKGRFTISRDNSKNTLYLQMNSLRAEDTAVYYCAREGMGMAAAGTWGQGTLVTVSS", "VL": "AIRMTQSPSSLSASVGDTVTITCQASQDISKYLNWYQQKPGKAPKLLIYDASNLETGVPSRFSGSGSGTDFTFTISSLQPEDIATYYCQQYDNLPQTFGGGTKVEIK"}, "B13": {"name": "C116 (antibody, V domains shown)", "VH": "QVQLVESGGGVVQPGRSLRLSCAASGFTYSTYAMHWVRQAPGKGLEWVAFISYDGSNKYYADSVKGRFTISRDNSKNTLYLQMNSLRAEDTAVYYCARDFYHNWFDPWGQGTLVTVSS", "VL": "NFMLTQPHSVSESPGKTVTISCTGSSGSIASNYVQWYQQRPGSAPTTVIYEDNQRPSGVPDRFSGSIDRSSNSASLTISGLKTEDEADYYCQSYDSGNHWVVFGGGTRLTVL"}, "B14": {"name": "C130 (antibody, V domains shown)", "VH": "QVQLVQSGAEVKKPGASVKVSCKASGYTFTNYYMHWVRQAPGQGLEWMGIINPSGGSTGYAQKFQGRVTMTRDTSTSTVYMELSSLRSEDTAVYYCARSRPTPDWYFDLWGRGTLVTVSS", "VL": "SYELTQPPSVSVAPGKTARITCGGNNIGSKSVHWYQQKPGQAPVLVIYYDSDRPSGIPERFSGSNSGNTATLTISRVEAGDEADYYCQVWDSSSDHPGVVFGGGTKLTVL"}, "B15": {"name": "C134 (antibody, V domains shown)", "VH": "EVQLLESGGGLVQPGGSLRLSCAASGFTFSNYAMSWVRQAPGKGLEWVSAISGSDGSTYYAGSVKGRFTISRDNSKNTLYLQMNSLRAEDTAVYYCAKDPLITGPTYQYFHYWGQGTLVTVSS", "VL": "B14 VL with D84E, Y86H, H96R"}, "B16": {"name": "C118 (antibody, V domains shown)", "VH": "QVQLVESGGGVVQPGRSLRLSCAASGFTFSNYAMHWVRQAPGKGLEWVAVISYDGSNKYYADSVKGRFTISRDNSKNTLYLQMNSLRAEDTAIYYCASGYTGYDYFVRGDYYGLDVWGQGTTVTVSS", "VL": "QPVLTQSPSASASLGASVKLTCTLSSGHSSYAIAWHQQQPEKGPRYLMKLNTDGSHSKGDGIPDRFSGSSSGAERYLTISSLQSEDEADYYCQTWGTGILVFGGGTKLTVL"}, "B17": {"name": "C131 (antibody, V domains shown)", "VH": "QVQLVQSGSEVKKPGSSVKVSCKASGGTFSSYAFSWVRQAPGQGLEWMGRIIPILALANYAQKFQGRVTITADKSTSTAYMELSSLRSEDTAVYYCARVNQAVTTPFSMDVWGQGTTVTVSS", "VL": "not shown"}, "B18": {"name": "C117 (antibody, V domains shown)", "VH": "QVQLVESGGGVVQPGRSLRLSCAASGFTFSTYAMHWVRQAPGEGLEWVAVISYDGSNTYYADSVKGRFTISRDNSKNTLYLQMNSLRAEDTAVYYCARDPIWFGELLSPPFVHFDYWGQGTLVTVSS", "VL": "QSVLTQPPSVSAAPGQKVTISCSGSSSNIGNNLVSWYQQLPGTAPKLLIYENNKRPSGIPDRFSGSKSGTSATLGITGLQTGDEADYYCGAWDSSLSAGGVYVFGTGTKVTVL"}, "B19": {"name": "C139 (antibody, V domains shown)", "VH": "EVQLVESGGGVVQPGRSLRLSCAASGFTFSSYAMHWVRQAPGKGLEWVAVISYDGSNKYSADSVKGRFTISRDNSKNTLYLQMNSLRAEDTAVYYCAKGGAYSYYYYMDVWGKGTTVTVSS", "VL": "not shown"}, "B20": {"name": "C122 (antibody, V domains shown)", "VH": "EVQLVESGGGLIQPGGSLRLSCAASGLTVSSNYMSWVRQAPGKGLEWVSVLYSGGSSFYADSVKGRFTISRDNSKNTLYLQMNSLRAEDTAVYYCARESGDTTMAFDYWGQGTLVTVSS", "VL": "DIQLTQSPSFLSASVGDRVTITCRASQGISSYLAWYQQKPGKAPKLLIYAASTLQSGVPSRFSGSGSGTEFTLTISSLQPEDFATYYCQQLNSDSYTFGQGTKLEIK"}, "B21": {"name": "C140 (antibody, V domains shown)", "VH": "EVQLVESGGGLVQPGGSLRLSCAASGVTVSSNYMSWVRQAPGKGLEWVSLIYSGGSTFYADSVKGRFTISRDNSENTLYLQMNTLRAEDTAVYYCARDLYYYGMDVWGQGTTVTVSS", "VL": "B20 VL with D94Y"}, "B22": {"name": "C123 (antibody, V domains shown)", "VH": "EVQLVESGGGLIQPGGSLRLSCAASGVTVSRNYMSWVRQAPGKGLEWVSVIYSGGSTYYADSVKGRFTISRDNSKNTLYLQMNSLRAEDTAVYYCARDLSAAFDIWGQGTMVTVSS", "VL": "B20 VL with D94Y, S95P, Y96P, T97A, K103R"}},
  "note": "Numbering of substitutions follows the chain as printed.",
  "data": [
    {"target": "SARS-CoV-2 receptor binding domain (RBD) (Severe acute respiratory syndrome …, UniProt P0DTC2)", "test": "cell-based or functional assay", "units": {"IC50 of neutralisation of SARS-CoV-2 pseudovirus (293T_(ACE2) cells)": "µg/mL"}, "values": [
      {"binder": "B1", "IC50 of neutralisation of SARS-CoV-2 pseudovirus (293T_(ACE2) cells)": 0.00912},
      {"binder": "B2", "IC50 of neutralisation of SARS-CoV-2 pseudovirus (293T_(ACE2) cells)": 0.198},
      {"binder": "B3", "IC50 of neutralisation of SARS-CoV-2 pseudovirus (293T_(ACE2) cells)": "> 1"},
      {"binder": "B4", "IC50 of neutralisation of SARS-CoV-2 pseudovirus (293T_(ACE2) cells)": 0.342},
      {"binder": "B5", "IC50 of neutralisation of SARS-CoV-2 pseudovirus (293T_(ACE2) cells)": "> 1"},
      {"binder": "B6", "IC50 of neutralisation of SARS-CoV-2 pseudovirus (293T_(ACE2) cells)": 0.00673},
      {"binder": "B7", "IC50 of neutralisation of SARS-CoV-2 pseudovirus (293T_(ACE2) cells)": 0.709},
      {"binder": "B8", "IC50 of neutralisation of SARS-CoV-2 pseudovirus (293T_(ACE2) cells)": "> 1"},
      {"binder": "B9", "IC50 of neutralisation of SARS-CoV-2 pseudovirus (293T_(ACE2) cells)": "> 1"},
      {"binder": "B10", "IC50 of neutralisation of SARS-CoV-2 pseudovirus (293T_(ACE2) cells)": "> 1"},
      {"binder": "B11", "IC50 of neutralisation of SARS-CoV-2 pseudovirus (293T_(ACE2) cells)": 0.101},
      {"binder": "B12", "IC50 of neutralisation of SARS-CoV-2 pseudovirus (293T_(ACE2) cells)": 0.0133},
      {"binder": "B13", "IC50 of neutralisation of SARS-CoV-2 pseudovirus (293T_(ACE2) cells)": "> 1"},
      {"binder": "B14", "IC50 of neutralisation of SARS-CoV-2 pseudovirus (293T_(ACE2) cells)": "> 1"},
      {"binder": "B15", "IC50 of neutralisation of SARS-CoV-2 pseudovirus (293T_(ACE2) cells)": "> 1"},
      {"binder": "B16", "IC50 of neutralisation of SARS-CoV-2 pseudovirus (293T_(ACE2) cells)": 0.104},
      {"binder": "B17", "IC50 of neutralisation of SARS-CoV-2 pseudovirus (293T_(ACE2) cells)": 0.0305},
      {"binder": "B18", "IC50 of neutralisation of SARS-CoV-2 pseudovirus (293T_(ACE2) cells)": 0.348},
      {"binder": "B19", "IC50 of neutralisation of SARS-CoV-2 pseudovirus (293T_(ACE2) cells)": "> 1"},
      {"binder": "B20", "IC50 of neutralisation of SARS-CoV-2 pseudovirus (293T_(ACE2) cells)": 0.0228},
      {"binder": "B21", "IC50 of neutralisation of SARS-CoV-2 pseudovirus (293T_(ACE2) cells)": 0.0239},
      {"binder": "B22", "IC50 of neutralisation of SARS-CoV-2 pseudovirus (293T_(ACE2) cells)": 0.149}
    ]}
  ]
}
